This note sets out measurements from IntAct's records for PubMed 21889351.

First the molecules themselves.
B1: Programmed cell death 6-interacting protein (Homo sapiens), Q8WUM4 (parent)
chain: MATFISVQLKKTSEVDLAKPLVKFIQQTYPSGGEEQAQYCRAAEELSKLRRAAVGRPLDKHEGALETLLRYYDQICSIEPKFPFSENQICLTFTWKDAFDKGSLFGGSVKLALASLGYEKSCVLFNCAALASQIAAEQNLDNDEGLKIAAKHYQFASGAFLHIKETVLSALSREPTVDISPDTVGTLSLIMLAQAQEVFFLKATRDKMKDAIIAKLANQAADYFGDAFKQCQYKDTLPKEVFPVLAAKHCIMQANAEYHQSILAKQQKKFGEEIARLQHAAELIKTVASRYDEYVNVKDFSDKINRALAAAKKDNDFIYHDRVPDLKDLDPIGKATLVKSTPVNVPISQKFTDLFEKMVPVSVQQSLAAYNQRKADLVNRSIAQMREATTLANGVLASLNLPAAIEDVSGDTVPQSILTKSRSVIEQGGIQTVDQLIKELPELLQRNREILDESLRLLDEEEATDNDLRAKFKERWQRTPSNELYKPLRAEGTNFRTVLDKAVQADGQVKECYQSHRDTIVLLCKPEPELNAAIPSANPAKTMQGSEVVNVLKSLLSNLDEVKKEREGLENDLKSVNFDMTSKFLTALAQDGVINEEALSVTELDRVYGGLTTKVQESLKKQEGLLKNIQVSHQEFSKMKQSNNEANLREEVLKNLATAYDNFVELVANLKEGTKFYNELTEILVRFQNKCSDIVFARKTERDELLKDLQQSIAREPSAPSIPTPAYQSSPAGGHAPTPPTPAPRTMPPTKPQPPARPPPPVLPANRAPSATAPSPVGAGTAAPAPSQTPGSAPPPQAQGPPYPTYPGYPGYCQMPMPMGYNPYAYGQYNMPYPPVYHQSPGQAPYPGPQQPSYPFPQPPQQSYYPQQ
partner: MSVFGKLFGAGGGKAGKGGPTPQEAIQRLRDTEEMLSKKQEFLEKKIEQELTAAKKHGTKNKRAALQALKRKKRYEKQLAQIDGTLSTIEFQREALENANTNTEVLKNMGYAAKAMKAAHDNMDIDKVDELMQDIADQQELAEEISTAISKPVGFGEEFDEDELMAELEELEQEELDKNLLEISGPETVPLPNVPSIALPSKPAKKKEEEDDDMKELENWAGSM

Variants of B1 are the subject of this test. Particulars: with chm4b_human CHMP4B.
With I212D, the “effect of a mutation on the interaction” value is “disrupting interaction”.
